Target: Oregon-Green-labelled actin monomers (OG-actin) (UniProt P68135)
Assay: stopped-flow fluorescence kinetics

“EVH2 domain of human VASP (hEVH2) (domain or fragment)” was tested, and the kon was 1.2e+07 to 1.8e+07 M⁻¹ s⁻¹.
